Primed or numbered codes have the meaning given here. NTA′ = nitrilotriacetic acid residue (Asp with its nitrogen carboxymethylated)
Biological target: T1, onconase bearing a six His tag (Rana pipiens, UniProt P22069 1-104)
T1 construct: also called His-tagged onconase
T1 sequence: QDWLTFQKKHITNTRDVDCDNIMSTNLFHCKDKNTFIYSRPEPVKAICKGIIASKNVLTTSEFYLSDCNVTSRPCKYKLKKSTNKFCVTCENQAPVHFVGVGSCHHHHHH
Test: SPR (Biacore C1 chip): IMP 267 immobilised by a disulfide and loaded with NiCl2, flow cell without nickel as control, His-tagged onconase at 0-50 nM as analyte
Experimental: IMP 267 was bound to a Biacore® C1 sensor chip first by dissolving 0.0040 g of IMP 267 in 690 μL of 0.01 M, pH 4.3 formate buffer. The chip was activated for coupling of the peptide via a disulfide linkage using pyridyldithioelthylamine (“PDEA”) as described by Biacore. The Biacore® C1 chip was activated with a 10 μL aliquot of the recommended 1-ethyl-3-(3-dimethylaminoprolyl) carbodiimide (“EDC”)/N-hydroxysuccinimide (“NHS”) mixture at 5 μL/min in flow cells 1 & 2. The recommended PDEA solution, 35 μL (0.0047 g PDEA in 0.1 M, pH 8.5 Borate buffer) was added to the chip at flow cells 1 & 2. The peptide, 35 μL was added to flow cells 1 & 2 and the chip was quenched with an aliquot of cysteine (made from 0.0026 g cys, 0.0268 g NaCl, and 433 μL 0.1 M, pH 4.3 formate buffer) into cells 1 & 2. The chip was activated by adding nickel to only one flow cell using the other flow cell, without nickel, as the control. The activation was done at 40 μL/min using 100 μL of a 500 μM NiCl₂ solution in NTA buffer. A kinetics experiment was performed using the following concentrations of onconase bearing a six His tag (50 nM, 25 nM, 10 nM, 5 nM, 1 nM and 0 nM). […] The affinity of His-tagged onconase is accessed similarly.

B1: IMP 267 (peptide)
peptide: Ac-CK(NTA′)K(NTA′)K(NTA′)-NH2
modifications: also: Cys thiol coupled to Biacore C1 chip by disulfide (PDEA), loaded with Ni2+
notes: Synthetic tri-NTA peptide; also called peptide that includes nitrilotriacetic acid residues
  Kd: 1.15 nM

From patent US20050261170A1 (published 2005)
